Laboratory results taken from publication PMC2577338.

How the values were obtained:
[1] = target: S. cerevisiae ribosomes with L10 R7L (S. cerevisiae) (UniProt P41805)
[2] = target: S. cerevisiae ribosomes with L10 R7P (S. cerevisiae) (UniProt P41805)
[3] = target: S. cerevisiae ribosomes with L10 R7Q (S. cerevisiae) (UniProt P41805)
[4] = target: S. cerevisiae ribosomes with L10 Y11C (S. cerevisiae) (UniProt P41805)
[5] = target: S. cerevisiae ribosomes with L10 Y9C (S. cerevisiae) (UniProt P41805)
[6] = target: S. cerevisiae ribosomes with L10 Y9N (S. cerevisiae) (UniProt P41805)
[7] = target: wild-type S. cerevisiae ribosomes (wild-type L10) (S. cerevisiae) (UniProt P41805)

“eEF2 (eukaryotic elongation factor 2) (from UniProt P32324 1-842) (natural protein)” gave a Kd [1] of 10.7 nM, a Kd [2] of 6.6 nM and a Kd [3] of 6.1 nM. For the same substance, the Kd [4] was 16.6 nM, the Kd [5] was 5.2 nM and the Kd [6] was 9.7 nM. For the same substance, the Kd [7] was 10.8 nM.
